Laboratory results reported in patent US20250122278A1, “ANTI-INTERLEUKIN-9 ANTIBODY AND USE THEREOF” (GUANGDONG KEGUANDA PHARMACEUTICAL TECHNOLOGY CO., LTD., priority 2022, published 2025).
Blank lines part the entries; values can stand above or below the binder they belong to.

How the values were obtained:
[1] = target: T1, IL-9-His recombinant protein (UniProt P15248 19-144); test: ELISA on IL-9-His, 293F culture supernatant, antibody concentration 2 µg/mL
T1 construct: range 19-144; used as coating antigen in the ELISAs; also called IL9 (19-144)-His; not shown: His tag, C-terminal by the vector name

[2] = target: T2, biotin-conjugated IL-9-Fc (Biotin-IL-9-Fc) (UniProt P15248 19-144, biotin-conjugated (sites not given)); test: flow cytometry blocking assay (IL9-IL9R blocking determination): serially diluted antibody against the binding of Biotin-IL-9-Fc to 293-IL-9R cells (IL-9R), MFI; unit taken from the x axis, the table prints none
T2 construct: range 19-144; also called Fc-IL-9 recombinant protein; Fc-IL-9; not shown: Fc tag (Fc2 in the vector name pLVX-Fc2-IL9 (19-144)-Puro)

[3] = target: T1, IL-9-His recombinant protein; test: BLI (ForteBio), antibody on Protein A sensor, antigen 7.81-125 nM in solution
Excerpt: The affinity of a humanized antibody was detected by ForteBio (BLI). […] An affinity detection procedure was as follows: equilibration for 60 s, binding for 180 s, and dissociation for 180 s.

[4] = target: T1, IL-9-His recombinant protein; test: ELISA on coated IL-9-His, OD450; unit taken from the x axis, the table prints none
Description: (§1) ELISA was conducted according to a standard protocol to determine the affinity of a purified antibody for the IL-9-His recombinant protein. In short, the IL-9-His recombinant protein was diluted with sterile PBS and added at 100 μL/well to a 96-well plate. The plate was incubated at 4° C. overnight and then blocked with a blocking buffer. 100 μL of a purified anti-IL-9 antibody serially diluted was added to the plate, and the plate was incubated for 1 h at room temperature. PBS was added to a control well. The plate was washed with PBST 3 times. Then 100 μL of horseradish peroxidase (HRP)-labeled anti-mouse IgG H&L (BIODRAGON, CAT #BF03001) was added, and the plate was incubated for 1 h at room temperature. The plate was washed with PBST 3 times. Then a chromogenic reaction was conducted with a 3,3′,5,5′-tetramethylbenzidine (TMB) chromogenic solution at room temperature. An OD value in each well was read by a microplate reader. Data was processed with PRISM GraphPad, and curves were plotted. The EC₅₀ value for each candidate antibody was calculated.

[5] = target: T2, biotin-conjugated IL-9-Fc …; test: flow cytometry blocking assay (IL-9-IL-9R blocking determination): serially diluted chimeric antibody against the binding of Biotin-IL-9-Fc to 293-IL-9R cells (IL-9R), MFI; unit taken from the x axis, the table prints none
Description: (§2) The plate was washed with PBS once. […] Washing was conducted with PBS, and then resuspension was conducted with PBS. Flow cytometry was conducted.

[6] = target: T1, IL-9-His recombinant protein; test: ELISA on IL-9-His, 293F culture supernatant, antibody concentration 1 µg/mL (second well)
Description: as §1

[7] = target: T1, IL-9-His recombinant protein; test: ELISA on IL-9-His, 293F culture supernatant, antibody concentration 2 µg/mL (second well)
Description: as §1

[8] = target: T1, IL-9-His recombinant protein; test: ELISA on IL-9-His, 293F culture supernatant, antibody concentration 1 µg/mL
Description: as §1

[9] = target: T2, biotin-conjugated IL-9-Fc …; test: flow cytometry blocking assay (IL-9-IL-9R blocking determination): serially diluted antibody against the binding of Biotin-IL-9-Fc to 293-IL-9R cells (IL-9R), MFI; unit taken from the x axis, the table prints none
Description: as §2

T1 sequence (P15248 19-144 limits assumed, form in doubt): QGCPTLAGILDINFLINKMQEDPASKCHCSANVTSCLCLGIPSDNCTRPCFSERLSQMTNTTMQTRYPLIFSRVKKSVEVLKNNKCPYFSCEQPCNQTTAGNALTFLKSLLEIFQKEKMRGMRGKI
T2 sequence (P15248 19-144 limits assumed, form in doubt): as above

ELISA OD450 [1]: 2.48 OD450 | EC50 [2]: 2.07 µg/mL | Kd [3]: 0.44 nM | koff [3]: 0.000934 s⁻¹ | kon [3]: 2.13e+06 M⁻¹ s⁻¹ | EC50 [4]: 0.022 µg/mL | EC50 [5]: 5.96 µg/mL | ELISA OD450 [6]: 2.55 OD450 | ELISA OD450 [7]: 2.6 OD450 | ELISA OD450 [8]: 2.43 OD450
B1: 38-D8-C7-G9 chimeric antibody (CA1) (antibody, V domains shown)
VH: EVQLKQSGAELMKPGASVKLSCKATGYTFTGYWIEWVKLRPGHGLEWIGEILPGSGSTNYNEEFKGKATFTADTSSNTAYMQLNSLTTEDSAIYYCARRTYYYGIPEDYWGQGTSVTVSS
VL: DIVMTQSQKFMSTSVGDRVSVTCKASQNVGTNVAWHQQKPGQSPKPLIYSASYRYSGVPDRFTGSGSGTDFTLTISNVQSEDLAEYFCQQYNSYPLTFGAGTKLELK
notes: also called CA1 antibody; human-mouse chimeric antibody CA1

EC50 [4]: 0.0459 µg/mL | EC50 [9]: 10.2 µg/mL
B2: 7F3com (antibody, V domains shown)
VH: QVQLVQSGAEVKKPGSSVKVSCKASGGTFSYYWIEWVRQAPGQGLEWMGEILPGSGTTNPNEKFKGRVTITADESTSTAYMELSSLRSEDTAVYYCARADYYGSDYVKFDYWGQGTLVTVSS
VL: DIQMTQSPSSLSASVGDRVTITCKASQHVITHVTWYQQKPGKAPKLLIYGTSYSYSGVPSRFSGSGSGTDFTLTISSLQPEDFATYYCQQFYEYPLTFGGGTKVEIK
notes: also called IL-9 positive control antibody; IL-9 positive antibody
